Target: T1, cynomolgus integrin avb8 (cynomolgus)
T1 chain 1: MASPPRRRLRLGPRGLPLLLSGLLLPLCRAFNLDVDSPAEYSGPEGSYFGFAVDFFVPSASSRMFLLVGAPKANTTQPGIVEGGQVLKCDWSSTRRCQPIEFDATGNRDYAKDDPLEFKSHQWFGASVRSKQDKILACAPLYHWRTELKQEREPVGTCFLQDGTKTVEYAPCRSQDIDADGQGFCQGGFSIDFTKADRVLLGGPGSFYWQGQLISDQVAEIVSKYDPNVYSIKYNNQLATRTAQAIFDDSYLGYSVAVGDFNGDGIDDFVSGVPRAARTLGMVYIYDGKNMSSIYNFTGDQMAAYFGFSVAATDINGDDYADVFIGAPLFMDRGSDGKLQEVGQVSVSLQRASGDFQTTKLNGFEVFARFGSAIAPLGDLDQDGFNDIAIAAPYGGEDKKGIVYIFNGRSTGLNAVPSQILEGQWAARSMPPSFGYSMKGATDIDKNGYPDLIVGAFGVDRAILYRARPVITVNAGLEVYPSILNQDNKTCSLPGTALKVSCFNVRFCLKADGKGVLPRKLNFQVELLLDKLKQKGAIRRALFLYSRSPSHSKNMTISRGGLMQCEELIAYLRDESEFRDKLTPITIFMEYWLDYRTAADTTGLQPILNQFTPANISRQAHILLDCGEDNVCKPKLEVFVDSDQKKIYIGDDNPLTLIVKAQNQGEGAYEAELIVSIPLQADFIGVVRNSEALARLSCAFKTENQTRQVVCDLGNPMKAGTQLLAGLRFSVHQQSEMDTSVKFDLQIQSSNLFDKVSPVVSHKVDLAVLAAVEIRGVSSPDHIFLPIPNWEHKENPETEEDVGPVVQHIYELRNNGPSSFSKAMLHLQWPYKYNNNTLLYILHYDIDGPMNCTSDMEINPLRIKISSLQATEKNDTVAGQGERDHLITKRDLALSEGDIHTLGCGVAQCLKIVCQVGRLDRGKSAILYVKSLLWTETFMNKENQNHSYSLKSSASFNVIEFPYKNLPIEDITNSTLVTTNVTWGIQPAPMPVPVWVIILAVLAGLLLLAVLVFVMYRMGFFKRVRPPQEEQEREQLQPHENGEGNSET
T1 chain 2: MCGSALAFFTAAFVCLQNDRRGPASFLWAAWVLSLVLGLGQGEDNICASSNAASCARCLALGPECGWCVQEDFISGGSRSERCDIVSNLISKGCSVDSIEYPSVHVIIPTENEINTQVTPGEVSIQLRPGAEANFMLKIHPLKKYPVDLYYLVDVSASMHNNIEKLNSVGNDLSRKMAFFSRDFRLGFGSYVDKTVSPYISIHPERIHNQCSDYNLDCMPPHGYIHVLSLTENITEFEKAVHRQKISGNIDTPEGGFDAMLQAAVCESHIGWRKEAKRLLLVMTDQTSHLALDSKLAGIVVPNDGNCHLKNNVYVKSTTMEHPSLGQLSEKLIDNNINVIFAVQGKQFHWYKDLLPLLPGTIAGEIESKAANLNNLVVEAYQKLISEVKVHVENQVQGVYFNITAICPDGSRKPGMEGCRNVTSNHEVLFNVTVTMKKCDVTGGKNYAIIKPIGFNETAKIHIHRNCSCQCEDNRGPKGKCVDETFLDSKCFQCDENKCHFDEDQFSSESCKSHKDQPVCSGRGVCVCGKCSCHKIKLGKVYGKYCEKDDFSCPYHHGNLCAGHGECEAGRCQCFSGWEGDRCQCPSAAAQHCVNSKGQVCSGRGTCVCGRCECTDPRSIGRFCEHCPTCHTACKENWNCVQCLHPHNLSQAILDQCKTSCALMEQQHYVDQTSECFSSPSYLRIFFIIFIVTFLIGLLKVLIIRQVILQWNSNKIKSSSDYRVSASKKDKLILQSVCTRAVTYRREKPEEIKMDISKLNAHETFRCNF
Experiment: SPR

B1: ADWA11 2.4 Fab (antibody, V domains shown)
VH: EVQLVESGGGLVQPGGSLRLSCAASGFNIKDYYMNWVRQAPGKGLEWVGWIDPDQGNTIYEPKFQGRFTISADTSKNSAYLQMNSLRAEDTAVYYCARRLLMDYWGQGTLVTVSS
VL: DIQMTQSPSSLSASVGDRVTITCRSTKSLSHFNGNTYLFWYQQKPGKAPKRLIYYMSSLASGVPSRFSGSGSGTDFTLTISSLQPEDFATYYCQQSLEYPFTFGGGTKVEIK
  Kd: < 0.1 nM

From US20220289850 (published 2022)
